# Data as given in US20220056134A1 (Genentech, published 2022).
# Experiments:
# HER2-ECD (in house) [1] = target: HER2-ECD (in house) (UniProt P04626); assay: SPR (refers to Table G3)
# HER2-ECD (in house) [2] = target: HER2-ECD (in house) (UniProt P04626); assay: SPR (BIAcore T200), Fab captured on anti-Fab chip, HER2-ECD as analyte, 25 C, 1:1 model
# [3] = target: T1, MET-R Fc (R&D Systems, catalog number 8614-MT) (UniProt P08581 25-932); assay: SPR (BIAcore T200), Fab captured on anti-Fab chip, MET-R Fc as analyte, 25 C, 1:1 model
# T1 construct: Bought reagent used as SPR analyte; not shown: Fc part of the bought fusion protein
# [4] = target: T1, MET-R Fc (R&D Systems, catalog number …); assay: SPR (BIAcore T200), Fab captured on anti-Fab chip, MET-R Fc as analyte; n.d. = binding was not detected
# IL-13 (in-house) [5] = target: T2, IL-13 (in-house) (UniProt P35225 35-146, limits assumed); assay: SPR (BIAcore T200), Fab captured on anti-Fab chip, IL-13 as analyte, 25 C, 1:1 model
# T2 construct: SPR analyte
# IL-13 (in-house) [6] = target: T2, IL-13 (in-house); assay: SPR
# IL-13 (in-house) [7] = target: T2, IL-13 (in-house); assay: SPR (BIAcore T200), Fab captured on anti-Fab chip, IL-13 as analyte; n.d. = binding was not detected
Molecule,Kd [3],koff [3],kon [3],Kd (IL-13 (in-house) [5]),koff (IL-13 (in-house) [5]),kon (IL-13 (in-house) [5]),also measured
anti-HER2 Fab variant CDR H3 W95D,–,–,–,–,–,–,fold change of KD against the unmodified parent (HER2-ECD (in house) [1]): 30 fold; Kd (HER2-ECD (in house) [2]): 36.5 nM; koff (HER2-ECD (in house) [2]): 0.00294 s⁻¹; kon (HER2-ECD (in house) [2]): 80000 M⁻¹ s⁻¹
"Parental anti-MET Fab (onartuzumab / 5D5) (Fab, V domains shown, Tested as Fab) VH: EVQLVESGGGLVQPGGSLRLSCAASGYTFTSYWLHWVRQAPGKGLEWVGMIDPSNSDTRFNPNFKDRFTISADTSKNTAYLQMNSLRAEDTAVYYCATYRSYVTPLDYWGQGTLVTVSS VL: DIQMTQSPSSLSASVGDRVTITCKSSQSLLYTSSQKNYLAWYQQKPGKAPKLLIYWASTRESGVPSRFSGSGSGTDFTLTISSLQPEDFATYYCQQYYAYPWTFGQGTKVEIK",< 0.05 nM,< 1e-05 s⁻¹,179000 M⁻¹ s⁻¹,–,–,–,–
"anti-MET Fab variant CDR L3 P95A (Fab, V domains shown, Fab; variable domains only; Kabat numbering) VH: EVQLVESGGGLVQPGGSLRLSCAASGYTFTSYWLHWVRQAPGKGLEWVGMIDPSNSDTRFNPNFKDRFTISADTSKNTAYLQMNSLRAEDTAVYYCATYRSYVTPLDYWGQGTLVTVSS VL: DIQMTQSPSSLSASVGDRVTITCKSSQSLLYTSSQKNYLAWYQQKPGKAPKLLIYWASTRESGVPSRFSGSGSGTDFTLTISSLQPEDFATYYCQQYYAYAWTFGQGTKVEIK",< 0.06 nM,< 1e-05 s⁻¹,153000 M⁻¹ s⁻¹,–,–,–,–
"anti-MET Fab variant CDR L3 Y91A:Y94A (Fab, V domains shown, Fab; variable domains only; Kabat numbering) VH: EVQLVESGGGLVQPGGSLRLSCAASGYTFTSYWLHWVRQAPGKGLEWVGMIDPSNSDTRFNPNFKDRFTISADTSKNTAYLQMNSLRAEDTAVYYCATYRSYVTPLDYWGQGTLVTVSS VL: DIQMTQSPSSLSASVGDRVTITCKSSQSLLYTSSQKNYLAWYQQKPGKAPKLLIYWASTRESGVPSRFSGSGSGTDFTLTISSLQPEDFATYYCQQAYAAPWTFGQGTKVEIK",–,–,–,–,–,–,binding result [4]: no binding (tested: analyte up to 75 nM)
"anti-MET Fab variant CDR L3 Y91A:W96A (Fab, V domains shown, Fab; variable domains only; Kabat numbering) VH: EVQLVESGGGLVQPGGSLRLSCAASGYTFTSYWLHWVRQAPGKGLEWVGMIDPSNSDTRFNPNFKDRFTISADTSKNTAYLQMNSLRAEDTAVYYCATYRSYVTPLDYWGQGTLVTVSS VL: DIQMTQSPSSLSASVGDRVTITCKSSQSLLYTSSQKNYLAWYQQKPGKAPKLLIYWASTRESGVPSRFSGSGSGTDFTLTISSLQPEDFATYYCQQAYAYPATFGQGTKVEIK",–,–,–,–,–,–,binding result [4]: no binding (tested: analyte up to 75 nM)
"Parental anti-IL-13 Fab (lebrikizumab) (Fab, V domains shown, Tested as Fab) VH: EVTLRESGPALVKPTQTLTLTCTVSGFSLSAYSVNWIRQPPGKALEWLAMIWGDGKIVYNSALKSRLTISKDTSKNQVVLTMTNMDPVDTATYYCAGDGYYPYAMDNWGQGSLVTVSS VL: DIVLTQSPDSLSVSLGERATINCRASKSVDSYGNSFMHWYQQKPGQPPKLLIYLASNLESGVPDRFSGSGSGTDFTLTISSLQAEDVAVYYCQQNNEDPRTFGGGTKVEIK",–,–,–,0.05 nM,5e-05 s⁻¹,1.17e+06 M⁻¹ s⁻¹,–
"anti-IL-13 Fab variant CDR L3 N92A (Fab, V domains shown, Fab; variable domains only; Kabat numbering) VH: EVTLRESGPALVKPTQTLTLTCTVSGFSLSAYSVNWIRQPPGKALEWLAMIWGDGKIVYNSALKSRLTISKDTSKNQVVLTMTNMDPVDTATYYCAGDGYYPYAMDNWGQGSLVTVSS VL: DIVLTQSPDSLSVSLGERATINCRASKSVDSYGNSFMHWYQQKPGQPPKLLIYLASNLESGVPDRFSGSGSGTDFTLTISSLQAEDVAVYYCQQNAEDPRTFGGGTKVEIK",–,–,–,0.03 nM,3e-05 s⁻¹,1.03e+06 M⁻¹ s⁻¹,–
"anti-IL-13 Fab variant CDR H3 D95A (Fab, name in Kabat numbering, V domains shown, Fab; variable domains only; Kabat numbering) VH: EVTLRESGPALVKPTQTLTLTCTVSGFSLSAYSVNWIRQPPGKALEWLAMIWGDGKIVYNSALKSRLTISKDTSKNQVVLTMTNMDPVDTATYYCAGAGYYPYAMDNWGQGSLVTVSS VL: DIVLTQSPDSLSVSLGERATINCRASKSVDSYGNSFMHWYQQKPGQPPKLLIYLASNLESGVPDRFSGSGSGTDFTLTISSLQAEDVAVYYCQQNNEDPRTFGGGTKVEIK",–,–,–,1.3 nM,0.00111 s⁻¹,882000 M⁻¹ s⁻¹,–
"anti-IL-13 Fab variant CDR H3 P99A (Fab, name in Kabat numbering, V domains shown, Fab; variable domains only; Kabat numbering) VH: EVTLRESGPALVKPTQTLTLTCTVSGFSLSAYSVNWIRQPPGKALEWLAMIWGDGKIVYNSALKSRLTISKDTSKNQVVLTMTNMDPVDTATYYCAGDGYYAYAMDNWGQGSLVTVSS VL: DIVLTQSPDSLSVSLGERATINCRASKSVDSYGNSFMHWYQQKPGQPPKLLIYLASNLESGVPDRFSGSGSGTDFTLTISSLQAEDVAVYYCQQNNEDPRTFGGGTKVEIK",–,–,–,1.8 nM,0.00269 s⁻¹,1.5e+06 M⁻¹ s⁻¹,–
"anti-IL-13 Fab variant CDR L3 R96A (Fab, V domains shown, Fab; variable domains only; Kabat numbering) VH: EVTLRESGPALVKPTQTLTLTCTVSGFSLSAYSVNWIRQPPGKALEWLAMIWGDGKIVYNSALKSRLTISKDTSKNQVVLTMTNMDPVDTATYYCAGDGYYPYAMDNWGQGSLVTVSS VL: DIVLTQSPDSLSVSLGERATINCRASKSVDSYGNSFMHWYQQKPGQPPKLLIYLASNLESGVPDRFSGSGSGTDFTLTISSLQAEDVAVYYCQQNNEDPATFGGGTKVEIK",–,–,–,0.5 nM,0.00044 s⁻¹,825000 M⁻¹ s⁻¹,fold loss in binding affinity against the parental anti-IL-13 Fab (IL-13 (in-house) [6]): ~10 fold
"anti-IL-13 Fab variant CDR L3 D94A:R96A (Fab, V domains shown, Fab; variable domains only; Kabat numbering; also called D94: R96A double substitution) VH: EVTLRESGPALVKPTQTLTLTCTVSGFSLSAYSVNWIRQPPGKALEWLAMIWGDGKIVYNSALKSRLTISKDTSKNQVVLTMTNMDPVDTATYYCAGDGYYPYAMDNWGQGSLVTVSS VL: DIVLTQSPDSLSVSLGERATINCRASKSVDSYGNSFMHWYQQKPGQPPKLLIYLASNLESGVPDRFSGSGSGTDFTLTISSLQAEDVAVYYCQQNNEAPATFGGGTKVEIK",–,–,–,0.7 nM,0.00037 s⁻¹,528000 M⁻¹ s⁻¹,fold loss in binding affinity against the parental anti-IL-13 Fab (IL-13 (in-house) [6]): ~10 fold
"anti-IL-13 Fab variant CDR H3 D95A:P99A (Fab, name in Kabat numbering, V domains shown, Fab; variable domains only; Kabat numbering) VH: EVTLRESGPALVKPTQTLTLTCTVSGFSLSAYSVNWIRQPPGKALEWLAMIWGDGKIVYNSALKSRLTISKDTSKNQVVLTMTNMDPVDTATYYCAGAGYYAYAMDNWGQGSLVTVSS VL: DIVLTQSPDSLSVSLGERATINCRASKSVDSYGNSFMHWYQQKPGQPPKLLIYLASNLESGVPDRFSGSGSGTDFTLTISSLQAEDVAVYYCQQNNEDPRTFGGGTKVEIK",–,–,–,–,–,–,binding result (IL-13 (in-house) [7]): no binding (tested: analyte up to 20 mM as printed)
"anti-IL-13 Fab variant CDR L3 D94A (Fab, V domains shown, Fab; variable domains only; Kabat numbering) VH: EVTLRESGPALVKPTQTLTLTCTVSGFSLSAYSVNWIRQPPGKALEWLAMIWGDGKIVYNSALKSRLTISKDTSKNQVVLTMTNMDPVDTATYYCAGDGYYPYAMDNWGQGSLVTVSS VL: DIVLTQSPDSLSVSLGERATINCRASKSVDSYGNSFMHWYQQKPGQPPKLLIYLASNLESGVPDRFSGSGSGTDFTLTISSLQAEDVAVYYCQQNNEAPRTFGGGTKVEIK",–,–,–,0.02 nM,3e-05 s⁻¹,1.24e+06 M⁻¹ s⁻¹,–

# Continued, in another order:
Kd [3],koff [3],kon [3],Kd (IL-13 (in-house) [5]),koff (IL-13 (in-house) [5]),kon (IL-13 (in-house) [5]),Molecule,also measured
5.7 nM,0.00065 s⁻¹,115000 M⁻¹ s⁻¹,–,–,–,"anti-MET Fab variant CDR L3 Y94A (Fab, V domains shown, Fab; variable domains only; Kabat numbering) VH: EVQLVESGGGLVQPGGSLRLSCAASGYTFTSYWLHWVRQAPGKGLEWVGMIDPSNSDTRFNPNFKDRFTISADTSKNTAYLQMNSLRAEDTAVYYCATYRSYVTPLDYWGQGTLVTVSS VL: DIQMTQSPSSLSASVGDRVTITCKSSQSLLYTSSQKNYLAWYQQKPGKAPKLLIYWASTRESGVPSRFSGSGSGTDFTLTISSLQPEDFATYYCQQYYAAPWTFGQGTKVEIK",–
1.1 nM,0.00019 s⁻¹,172000 M⁻¹ s⁻¹,–,–,–,"anti-MET Fab variant CDR L3 Y92A (Fab, V domains shown, Fab; variable domains only; Kabat numbering) VH: EVQLVESGGGLVQPGGSLRLSCAASGYTFTSYWLHWVRQAPGKGLEWVGMIDPSNSDTRFNPNFKDRFTISADTSKNTAYLQMNSLRAEDTAVYYCATYRSYVTPLDYWGQGTLVTVSS VL: DIQMTQSPSSLSASVGDRVTITCKSSQSLLYTSSQKNYLAWYQQKPGKAPKLLIYWASTRESGVPSRFSGSGSGTDFTLTISSLQPEDFATYYCQQYAAYPWTFGQGTKVEIK",–
0.8 nM,6e-05 s⁻¹,70000 M⁻¹ s⁻¹,–,–,–,"anti-MET Fab variant CDR L3 Y91A (Fab, V domains shown, Fab; variable domains only) VH: EVQLVESGGGLVQPGGSLRLSCAASGYTFTSYWLHWVRQAPGKGLEWVGMIDPSNSDTRFNPNFKDRFTISADTSKNTAYLQMNSLRAEDTAVYYCATYRSYVTPLDYWGQGTLVTVSS VL: DIQMTQSPSSLSASVGDRVTITCKSSQSLLYTSSQKNYLAWYQQKPGKAPKLLIYWASTRESGVPSRFSGSGSGTDFTLTISSLQPEDFATYYCQQAYAYPWTFGQGTKVEIK",–
2.1 nM,0.00017 s⁻¹,84000 M⁻¹ s⁻¹,–,–,–,"anti-MET Fab variant CDR L3 W96A (Fab, V domains shown, Fab; variable domains only; Kabat numbering) VH: EVQLVESGGGLVQPGGSLRLSCAASGYTFTSYWLHWVRQAPGKGLEWVGMIDPSNSDTRFNPNFKDRFTISADTSKNTAYLQMNSLRAEDTAVYYCATYRSYVTPLDYWGQGTLVTVSS VL: DIQMTQSPSSLSASVGDRVTITCKSSQSLLYTSSQKNYLAWYQQKPGKAPKLLIYWASTRESGVPSRFSGSGSGTDFTLTISSLQPEDFATYYCQQYYAYPATFGQGTKVEIK",–
